Ends that are not written are not given here.
B1: IL-2Rγc ligand SEQ ID NO: 224 (peptide)
peptide: DCSMWEGVELCW
notes: also called Peptide F
B2: IL-2Rγc ligand SEQ ID NO: 266 (peptide)
peptide: CPSMLQGPERTWVC
B3: IL-2Rγc ligand SEQ ID NO: 236 (peptide)
peptide: MCWLEWGEWVGSCL
B4: IL-2Rγc ligand SEQ ID NO: 202 (peptide)
peptide: RTCTEWENVVLCWV
modifications: not fully specified; cysteine pairing not given here
B5: IL-2Rγc ligand SEQ ID NO: 198 (peptide)
peptide: KVCEMWGGVLLCWN
B6: IL-2Rγc ligand SEQ ID NO: 948 (peptide)
peptide: SLLKCYNASTCASVF
B7: IL-2Rγc ligand SEQ ID NO: 1051 (peptide)
peptide: DLSDLSTFWLSQ
modifications: not fully specified
notes: Family 3; also called 248 or 1051
B8: IL-2Rβ ligand SEQ ID NO: 1044 (peptide)
peptide: RSCYYKRPRLWCSE

These binders were tested against T1, human IL-2Rγc (CD132 protein, Fc Tag) (23-254) (human, UniProt P31785 23-254) (assay: IC50, method not told in the paragraph).
T1 construct: range 23-254; Bought protein; also called IL-2Rγc subunit; γc subunit; not shown: Fc Tag of the bought protein (ACRObiosystems ILG-H5256)
T1 sequence (looked up): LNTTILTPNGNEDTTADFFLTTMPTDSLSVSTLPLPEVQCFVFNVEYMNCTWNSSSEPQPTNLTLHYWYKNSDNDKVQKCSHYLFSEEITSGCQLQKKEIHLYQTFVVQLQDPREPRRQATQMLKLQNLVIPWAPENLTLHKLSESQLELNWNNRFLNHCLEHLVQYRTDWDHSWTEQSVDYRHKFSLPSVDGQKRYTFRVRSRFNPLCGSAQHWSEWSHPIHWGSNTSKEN

IC50, < 10 µM:
B1
B2
B3
B4
B5
B6
B7

These binders were tested against T2, human IL-2Rβ (CD122 protein, Fc Tag) (27-239) (human, UniProt P14784 27-239) (assay: IC50, method not told in the paragraph).
T2 construct: range 27-239; Bought protein; also called IL-2Rβ subunit; IL-2Rβ-Fc; not shown: Fc Tag of the bought protein (ACRObiosystems ILB-H5253)
T2 sequence (looked up): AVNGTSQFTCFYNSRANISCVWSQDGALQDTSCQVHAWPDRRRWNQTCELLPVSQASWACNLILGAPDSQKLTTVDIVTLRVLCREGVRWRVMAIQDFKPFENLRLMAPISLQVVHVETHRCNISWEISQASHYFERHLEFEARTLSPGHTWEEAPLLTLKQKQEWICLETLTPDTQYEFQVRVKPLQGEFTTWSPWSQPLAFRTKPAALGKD

IC50, < 10 µM:
B8

Reference: US20230192767A1 (MEDIKINE, published 2023)
